In patent publication US8618251:

Biological target: C1q (Calbiochem) (UniProt P02745)
Experiment: SPR (Biacore T100), steady-state affinity; antibody immobilised on CM5 chip, C1q injected

Sequence of C1q (Calbiochem) (P02745 23-245 limits assumed, chain 1 of 3): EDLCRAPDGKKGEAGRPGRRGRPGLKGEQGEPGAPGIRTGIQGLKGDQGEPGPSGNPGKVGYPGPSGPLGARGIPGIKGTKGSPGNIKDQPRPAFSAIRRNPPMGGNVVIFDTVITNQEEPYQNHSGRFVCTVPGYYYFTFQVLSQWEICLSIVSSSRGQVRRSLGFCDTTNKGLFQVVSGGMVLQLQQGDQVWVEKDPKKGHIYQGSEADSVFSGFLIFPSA
Sequence of C1q (Calbiochem) (P02746 28-253 limits assumed, chain 2 of 3, further chain): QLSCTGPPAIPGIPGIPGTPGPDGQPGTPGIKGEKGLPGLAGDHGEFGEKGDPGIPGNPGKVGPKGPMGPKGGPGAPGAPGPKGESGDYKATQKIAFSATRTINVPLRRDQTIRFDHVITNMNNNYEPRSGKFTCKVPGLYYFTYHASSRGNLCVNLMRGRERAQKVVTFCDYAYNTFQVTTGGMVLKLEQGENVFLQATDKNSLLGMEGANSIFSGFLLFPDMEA
Sequence of C1q (Calbiochem) (P02747 29-245 limits assumed, chain 3 of 3, further chain): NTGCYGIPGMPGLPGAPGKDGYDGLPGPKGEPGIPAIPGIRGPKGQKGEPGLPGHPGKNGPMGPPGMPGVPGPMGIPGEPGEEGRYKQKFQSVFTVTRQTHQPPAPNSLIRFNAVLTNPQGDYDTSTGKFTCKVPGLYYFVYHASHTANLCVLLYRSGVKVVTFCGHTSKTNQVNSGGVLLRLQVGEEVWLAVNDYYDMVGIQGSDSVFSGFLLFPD

Substance	Kd
4-4-20 hIgG1 with unmodified human IgG1 Fc (antibody)	290 nM

Biological target: soluble hFcγ-receptor RIa (human) (UniProt P12314)
Experiment: SPR Biacore T100, steady state, antibody immobilised

Sequence of soluble hFcγ-receptor RIa (human) (P12314 16-288 limits assumed): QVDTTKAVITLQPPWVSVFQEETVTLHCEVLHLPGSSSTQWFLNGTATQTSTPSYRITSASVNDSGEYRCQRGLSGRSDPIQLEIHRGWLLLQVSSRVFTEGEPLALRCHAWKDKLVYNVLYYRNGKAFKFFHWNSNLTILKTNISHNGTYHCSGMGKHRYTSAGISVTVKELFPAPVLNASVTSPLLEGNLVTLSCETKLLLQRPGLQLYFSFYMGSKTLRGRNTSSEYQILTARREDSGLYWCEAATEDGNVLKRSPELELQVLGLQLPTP

Substance	Kd
4-4-20 hIgG1 Fc mutant G236A-F243I-I332T (antibody)	42.3 nM
4-4-20 hIgG1 Fc mutant G236A-K246E-F372Y-T394A-Q419L (antibody)	36.1 nM
4-4-20 hIgG1 Fc mutant K205E-V211A-G237V-F243L-V273I-T366S-M428L (antibody)	43.6 nM
4-4-20 hIgG1 Fc mutant L163P-S183G-K222E-G236A-N276D-S298G-D312G (antibody)	66.6 nM
4-4-20 hIgG1 Fc mutant P171S-S191C-G236A-K274M-T394P (antibody)	11.8 nM
4-4-20 hIgG1 Fc mutant V188E-G236A-P244H-H268Y (antibody)	17.4 nM

Biological target: soluble hFcγRIIIA FF (human) (UniProt P08637)
Experiment: as above

Substance	Kd
4-4-20 hIgG1 Fc mutant G236A-F243I-I332T (antibody)	11200 nM
4-4-20 hIgG1 Fc mutant G236A-K246E-F372Y-T394A-Q419L (antibody)	11900 nM
4-4-20 hIgG1 Fc mutant K205E-V211A-G237V-F243L-V273I-T366S-M428L (antibody)	11600 nM
4-4-20 hIgG1 Fc mutant L163P-S183G-K222E-G236A-N276D-S298G-D312G (antibody)	15800 nM
4-4-20 hIgG1 Fc mutant P171S-S191C-G236A-K274M-T394P (antibody)	11000 nM
4-4-20 hIgG1 Fc mutant S239D (antibody)	1690 nM
4-4-20 hIgG1 Fc mutant V188E-G236A-P244H-H268Y (antibody)	14000 nM
4-4-20 hIgG1 Fc mutant V215I-K326E-T359A-P396L (antibody)	6900 nM

Biological target: soluble hFcγRIIIA FV (human) (UniProt P08637)
Experiment: as above

Sequence of soluble hFcγRIIIA FV (human) (P08637 17-208 F176V): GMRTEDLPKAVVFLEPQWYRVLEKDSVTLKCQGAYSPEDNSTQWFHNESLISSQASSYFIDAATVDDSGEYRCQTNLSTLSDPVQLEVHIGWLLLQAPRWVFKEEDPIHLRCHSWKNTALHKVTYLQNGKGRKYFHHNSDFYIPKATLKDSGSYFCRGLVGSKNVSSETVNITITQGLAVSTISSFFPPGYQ

Substance	Kd
4-4-20 hIgG1 Fc mutant G236A-F243I-I332T (antibody)	7040 nM
4-4-20 hIgG1 Fc mutant G236A-K246E-F372Y-T394A-Q419L (antibody)	6760 nM
4-4-20 hIgG1 Fc mutant K205E-V211A-G237V-F243L-V273I-T366S-M428L (antibody)	8990 nM
4-4-20 hIgG1 Fc mutant L163P-S183G-K222E-G236A-N276D-S298G-D312G (antibody)	9320 nM
4-4-20 hIgG1 Fc mutant P171S-S191C-G236A-K274M-T394P (antibody)	5570 nM
4-4-20 hIgG1 Fc mutant S239D (antibody)	307 nM
4-4-20 hIgG1 Fc mutant V188E-G236A-P244H-H268Y (antibody)	5500 nM
4-4-20 hIgG1 Fc mutant V215I-K326E-T359A-P396L (antibody)	489 nM

Biological target: soluble hFcγRIIA^131R (human) (UniProt P12318)
Experiment: as above

Sequence of soluble hFcγRIIA^131R (human) (P12318 34-217 H167R): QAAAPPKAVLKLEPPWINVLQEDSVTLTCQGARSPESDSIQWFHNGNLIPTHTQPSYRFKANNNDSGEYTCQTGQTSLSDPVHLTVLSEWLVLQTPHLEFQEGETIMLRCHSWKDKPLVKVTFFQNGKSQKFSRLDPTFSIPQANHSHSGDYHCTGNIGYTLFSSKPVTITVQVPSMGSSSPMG

Substance	Kd
4-4-20 hIgG1 Fc mutant G236A-F243I-I332T (antibody)	944 nM
4-4-20 hIgG1 Fc mutant G236A-K246E-F372Y-T394A-Q419L (antibody)	498 nM
4-4-20 hIgG1 Fc mutant K205E-V211A-G237V-F243L-V273I-T366S-M428L (antibody)	851 nM
4-4-20 hIgG1 Fc mutant L163P-S183G-K222E-G236A-N276D-S298G-D312G (antibody)	479 nM
4-4-20 hIgG1 Fc mutant P171S-S191C-G236A-K274M-T394P (antibody)	473 nM
4-4-20 hIgG1 Fc mutant S239D (antibody)	1480 nM
4-4-20 hIgG1 Fc mutant V188E-G236A-P244H-H268Y (antibody)	394 nM
4-4-20 hIgG1 Fc mutant V215I-K326E-T359A-P396L (antibody)	372 nM

Biological target: C1q (Calbiochem) (UniProt P02745)
Experiment: as above

Substance	Kd
4-4-20 hIgG1 Fc mutant G236A-F243I-I332T (antibody)	25.7 nM
4-4-20 hIgG1 Fc mutant G236A-K246E-F372Y-T394A-Q419L (antibody)	703 nM
4-4-20 hIgG1 Fc mutant K205E-V211A-G237V-F243L-V273I-T366S-M428L (antibody)	292 nM
4-4-20 hIgG1 Fc mutant L163P-S183G-K222E-G236A-N276D-S298G-D312G (antibody)	392 nM
4-4-20 hIgG1 Fc mutant P171S-S191C-G236A-K274M-T394P (antibody)	559 nM
4-4-20 hIgG1 Fc mutant S239D (antibody)	248 nM
4-4-20 hIgG1 Fc mutant V188E-G236A-P244H-H268Y (antibody)	405 nM
4-4-20 hIgG1 Fc mutant V215I-K326E-T359A-P396L (antibody)	137 nM

Biological target: soluble hFcγRIIB (human) (UniProt P31994)
Experiment: as above

Sequence of soluble hFcγRIIB (human) (P31994 43-217 limits assumed): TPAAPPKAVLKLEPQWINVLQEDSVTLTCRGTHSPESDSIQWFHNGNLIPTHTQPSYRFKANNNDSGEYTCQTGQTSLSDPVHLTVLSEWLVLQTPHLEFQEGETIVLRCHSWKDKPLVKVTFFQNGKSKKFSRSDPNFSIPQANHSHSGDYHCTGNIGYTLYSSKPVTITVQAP

Substance	Kd
4-4-20 hIgG1 Fc mutant G236A-F243I-I332T (antibody)	16700 nM
4-4-20 hIgG1 Fc mutant G236A-K246E-F372Y-T394A-Q419L (antibody)	9800 nM
4-4-20 hIgG1 Fc mutant K205E-V211A-G237V-F243L-V273I-T366S-M428L (antibody)	13400 nM
4-4-20 hIgG1 Fc mutant L163P-S183G-K222E-G236A-N276D-S298G-D312G (antibody)	14000 nM
4-4-20 hIgG1 Fc mutant P171S-S191C-G236A-K274M-T394P (antibody)	8090 nM
4-4-20 hIgG1 Fc mutant V188E-G236A-P244H-H268Y (antibody)	10500 nM
4-4-20 hIgG1 Fc mutant V215I-K326E-T359A-P396L (antibody)	3210 nM

Biological target: soluble hFcγRIIA^131H (human) (UniProt P12318)
Experiment: as above

Sequence of soluble hFcγRIIA^131H (human) (P12318 34-217): as the sequence (P12318 34-217 H167R) above, with R134H counted along it

Substance	Kd
4-4-20 hIgG1 Fc mutant G236A-F243I-I332T (antibody)	482 nM
4-4-20 hIgG1 Fc mutant G236A-K246E-F372Y-T394A-Q419L (antibody)	467 nM
4-4-20 hIgG1 Fc mutant K205E-V211A-G237V-F243L-V273I-T366S-M428L (antibody)	10000 nM
4-4-20 hIgG1 Fc mutant L163P-S183G-K222E-G236A-N276D-S298G-D312G (antibody)	1060 nM
4-4-20 hIgG1 Fc mutant P171S-S191C-G236A-K274M-T394P (antibody)	513 nM
4-4-20 hIgG1 Fc mutant S239D (antibody)	1460 nM
4-4-20 hIgG1 Fc mutant V215I-K326E-T359A-P396L (antibody)	4790 nM

Biological target: soluble hFcγRIIA^131R (human) (UniProt P12318)
Experiment: SPR (Biacore T100), steady-state affinity; antibody immobilised on CM5 chip, soluble receptor injected

Substance	Kd
4-4-20 hIgG1 with unmodified human IgG1 Fc (antibody)	4800 nM

Biological target: soluble hFcγRIIA^131H (human) (UniProt P12318)
Experiment: as above

Substance	Kd
4-4-20 hIgG1 with unmodified human IgG1 Fc (antibody)	4300 nM

Biological target: soluble hFcγRIIIA FV (human) (UniProt P08637)
Experiment: SPR (Biacore T100), steady-state affinity; antibody immobilised on CM5 chip, soluble receptor injected; column head hRIIIA158F, whose values for IEAL, ALEV and LLLFET are those of the hRIIIA FV column of Table 1

Substance	Kd
4-4-20 hIgG1 with unmodified human IgG1 Fc (antibody)	3500 nM

Biological target: soluble hFcγ-receptor RIa (human) (UniProt P12314)
Experiment: SPR Biacore T100; reference of the fold not given

Substance	Fold change in affinity
4-4-20 hIgG1 Fc mutant G236A-F243I-I332T (antibody)	0.4 fold
4-4-20 hIgG1 Fc mutant G236A-K246E-F372Y-T394A-Q419L (antibody)	0.7 fold
4-4-20 hIgG1 Fc mutant K205E-V211A-G237V-F243L-V273I-T366S-M428L (antibody)	0.4 fold
4-4-20 hIgG1 Fc mutant L163P-S183G-K222E-G236A-N276D-S298G-D312G (antibody)	0.4 fold
4-4-20 hIgG1 Fc mutant P171S-S191C-G236A-K274M-T394P (antibody)	1.1 fold

Biological target: soluble hFcγRIIIA FF (human) (UniProt P08637)
Experiment: SPR Biacore T100; reference of the fold not given

Substance	Fold change in affinity
4-4-20 hIgG1 Fc mutant G236A-F243I-I332T (antibody)	1.2 fold
4-4-20 hIgG1 Fc mutant G236A-K246E-F372Y-T394A-Q419L (antibody)	1.1 fold
4-4-20 hIgG1 Fc mutant K205E-V211A-G237V-F243L-V273I-T366S-M428L (antibody)	1.2 fold
4-4-20 hIgG1 Fc mutant L163P-S183G-K222E-G236A-N276D-S298G-D312G (antibody)	0.8 fold
4-4-20 hIgG1 Fc mutant P171S-S191C-G236A-K274M-T394P (antibody)	1.2 fold
4-4-20 hIgG1 Fc mutant S239D (antibody)	7.4 fold
4-4-20 hIgG1 Fc mutant V215I-K326E-T359A-P396L (antibody)	2.2 fold

Biological target: soluble hFcγRIIIA FV (human) (UniProt P08637)
Experiment: SPR Biacore T100; reference of the fold not given

Substance	Fold change in affinity
4-4-20 hIgG1 Fc mutant G236A-F243I-I332T (antibody)	0.5 fold
4-4-20 hIgG1 Fc mutant G236A-K246E-F372Y-T394A-Q419L (antibody)	0.6 fold
4-4-20 hIgG1 Fc mutant K205E-V211A-G237V-F243L-V273I-T366S-M428L (antibody)	0.4 fold
4-4-20 hIgG1 Fc mutant L163P-S183G-K222E-G236A-N276D-S298G-D312G (antibody)	0.5 fold
4-4-20 hIgG1 Fc mutant P171S-S191C-G236A-K274M-T394P (antibody)	0.3 fold
4-4-20 hIgG1 Fc mutant S239D (antibody)	5.3 fold
4-4-20 hIgG1 Fc mutant V215I-K326E-T359A-P396L (antibody)	7.2 fold

Biological target: soluble hFcγRIIA^131R (human) (UniProt P12318)
Experiment: SPR Biacore T100; reference of the fold not given

Substance	Fold change in affinity
4-4-20 hIgG1 Fc mutant G236A-F243I-I332T (antibody)	5 fold
4-4-20 hIgG1 Fc mutant G236A-K246E-F372Y-T394A-Q419L (antibody)	9.6 fold
4-4-20 hIgG1 Fc mutant K205E-V211A-G237V-F243L-V273I-T366S-M428L (antibody)	5.6 fold
4-4-20 hIgG1 Fc mutant L163P-S183G-K222E-G236A-N276D-S298G-D312G (antibody)	9.9 fold
4-4-20 hIgG1 Fc mutant P171S-S191C-G236A-K274M-T394P (antibody)	10.1 fold
4-4-20 hIgG1 Fc mutant S239D (antibody)	4.9 fold
4-4-20 hIgG1 Fc mutant V215I-K326E-T359A-P396L (antibody)	12.8 fold

Biological target: C1q (Calbiochem) (UniProt P02745)
Experiment: SPR Biacore T100; reference of the fold not given

Substance	Fold change in affinity
4-4-20 hIgG1 Fc mutant G236A-F243I-I332T (antibody)	0.8 fold
4-4-20 hIgG1 Fc mutant G236A-K246E-F372Y-T394A-Q419L (antibody)	0.4 fold
4-4-20 hIgG1 Fc mutant P171S-S191C-G236A-K274M-T394P (antibody)	0.5 fold
4-4-20 hIgG1 Fc mutant S239D (antibody)	0.6 fold
4-4-20 hIgG1 Fc mutant V215I-K326E-T359A-P396L (antibody)	2.1 fold

Biological target: soluble hFcγRIIB (human) (UniProt P31994)
Experiment: SPR Biacore T100; reference of the fold not given

Substance	Fold change in affinity
4-4-20 hIgG1 Fc mutant G236A-F243I-I332T (antibody)	1.5 fold
4-4-20 hIgG1 Fc mutant G236A-K246E-F372Y-T394A-Q419L (antibody)	2.5 fold
4-4-20 hIgG1 Fc mutant K205E-V211A-G237V-F243L-V273I-T366S-M428L (antibody)	1.8 fold
4-4-20 hIgG1 Fc mutant L163P-S183G-K222E-G236A-N276D-S298G-D312G (antibody)	1.7 fold
4-4-20 hIgG1 Fc mutant S239D (antibody)	4.3 fold
4-4-20 hIgG1 Fc mutant V215I-K326E-T359A-P396L (antibody)	7.6 fold

Biological target: soluble hFcγRIIA^131H (human) (UniProt P12318)
Experiment: SPR Biacore T100; reference of the fold not given

Substance	Fold change in affinity
4-4-20 hIgG1 Fc mutant G236A-F243I-I332T (antibody)	8.9 fold
4-4-20 hIgG1 Fc mutant G236A-K246E-F372Y-T394A-Q419L (antibody)	9.2 fold
4-4-20 hIgG1 Fc mutant K205E-V211A-G237V-F243L-V273I-T366S-M428L (antibody)	0.4 fold
4-4-20 hIgG1 Fc mutant L163P-S183G-K222E-G236A-N276D-S298G-D312G (antibody)	4.1 fold
4-4-20 hIgG1 Fc mutant P171S-S191C-G236A-K274M-T394P (antibody)	8.4 fold
4-4-20 hIgG1 Fc mutant S239D (antibody)	2.3 fold
4-4-20 hIgG1 Fc mutant V215I-K326E-T359A-P396L (antibody)	0.9 fold
